ChEMBL document CHEMBL1121725, “Interaction of 1-(5-phospho-beta-D-arabinofuranosyl)-5-substituted-uracils with thymidylate synthetase: mechanism-based inhibition by 1-(5-phospho-beta-D-arabinosyl)-5-fluorouracil” (J Med Chem, 1981)

Molecular target: thymidylate synthase (Lactobacillus casei)
Experiment: Compound was evaluated for the inhibition of dTMP synthetase with respect to dUMP.

B1: Thymidylate synthase (Escherichia coli), C3SWJ7 (protein)
chain: MKQYLELMQKVLDEGTQKNDRTGTGTLSIFGHQMRFNLQDGFPLVTTKRCHLRSIIHELLWFLQGDTNIAYLHENNVTIWDEWADENGDLGPVYGKQWRAWPTPDGRHIDQITTVLNQLKNDPDSRRIIVSAWNVGELDKMALAPCHAFFQFYVADGKLSCQLYQRSCDVFLGLPFNIASYALLVHMMAQQCDLEVGDFVWIGGDTHLYSNHMDQTHLQLSREPRPLPKLIIKRKPESIFDYRFEDFEIEGYDPHPGIKAPVAI
With B1 the Km was 2 µM.
